Measurements published in US20230062122A1 (VALO THERAPEUTICS, published 2023).

B1: polyK-SIINFEKL (peptide)
peptide: KKKKKKSIINFEKL
B2: SIINFEKL-AHX-polyK (peptide)
peptide: SIINFEKLKKKKKK
modifications: amino caproic acid (AHX) residue between SIINFEKL and polyK
B3: SIINFEKL-polyK (peptide)
peptide: SIINFEKLKKKKKK

Experiments:
[1] = biological target: SIINFEKL on MHC-I (H-2K^b) on C57BL/6 splenocytes (mouse; chicken); assay: flow cytometry, C57BL/6 splenocytes pulsed 2 h with SIINFEKL and stained with the APC antibody
[2] = biological target: T1, MHC-I molecule (H-2K^b) on C57BL/6 splenocytes (mouse, UniProt P01887 21-119; P01901 22-369); assay: cell-based or functional assay
T1 sequence (MHC heavy): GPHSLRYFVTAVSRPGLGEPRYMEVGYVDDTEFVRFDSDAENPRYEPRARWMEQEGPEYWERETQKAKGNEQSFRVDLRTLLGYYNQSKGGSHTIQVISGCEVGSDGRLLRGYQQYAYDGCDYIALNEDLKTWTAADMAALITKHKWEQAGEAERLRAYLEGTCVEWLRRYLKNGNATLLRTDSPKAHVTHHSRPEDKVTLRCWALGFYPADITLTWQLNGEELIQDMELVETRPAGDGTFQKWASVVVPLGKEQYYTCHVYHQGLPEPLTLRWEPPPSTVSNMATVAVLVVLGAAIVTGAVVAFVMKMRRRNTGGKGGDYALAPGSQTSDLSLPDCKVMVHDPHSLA
T1 sequence (b2m): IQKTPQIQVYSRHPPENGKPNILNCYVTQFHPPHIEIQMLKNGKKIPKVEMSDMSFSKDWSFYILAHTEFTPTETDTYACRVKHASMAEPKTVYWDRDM

Molecule | % of splenocytes positive [1] | proportion of splenocytes cross-presenting SIINFEKL on MHC-I (flow cytometry with anti-H-2K^b bound to SIINFEKL) [2]
APC anti-mouse H-2K^b bound to SIINFEKL (BioLegend) (antibody) | 98.5% | 
B1 |  | 94.5%
B2 |  | 1.36%
B3 |  | 27.1%
